Patent publication US20260275312, “CRISPR NUCLEASE POLYPEPTIDES AND GENE EDITING SYSTEMS COMPRISING SUCH” (ARBOR BIOTECHNOLOGIES, INC., published 2026)
Residue numbers refer to the chain shown, from its start.

Tests used:
Nuclease H L323R = target: T1, Nuclease H L323R (synthetic construct, L323R); test: cell_activity; HEK293T; PAM AAC; conditions: tags: N-term SV40 NLS, XTEN linker + C-term nucleoplasmin NLS
T1 chain: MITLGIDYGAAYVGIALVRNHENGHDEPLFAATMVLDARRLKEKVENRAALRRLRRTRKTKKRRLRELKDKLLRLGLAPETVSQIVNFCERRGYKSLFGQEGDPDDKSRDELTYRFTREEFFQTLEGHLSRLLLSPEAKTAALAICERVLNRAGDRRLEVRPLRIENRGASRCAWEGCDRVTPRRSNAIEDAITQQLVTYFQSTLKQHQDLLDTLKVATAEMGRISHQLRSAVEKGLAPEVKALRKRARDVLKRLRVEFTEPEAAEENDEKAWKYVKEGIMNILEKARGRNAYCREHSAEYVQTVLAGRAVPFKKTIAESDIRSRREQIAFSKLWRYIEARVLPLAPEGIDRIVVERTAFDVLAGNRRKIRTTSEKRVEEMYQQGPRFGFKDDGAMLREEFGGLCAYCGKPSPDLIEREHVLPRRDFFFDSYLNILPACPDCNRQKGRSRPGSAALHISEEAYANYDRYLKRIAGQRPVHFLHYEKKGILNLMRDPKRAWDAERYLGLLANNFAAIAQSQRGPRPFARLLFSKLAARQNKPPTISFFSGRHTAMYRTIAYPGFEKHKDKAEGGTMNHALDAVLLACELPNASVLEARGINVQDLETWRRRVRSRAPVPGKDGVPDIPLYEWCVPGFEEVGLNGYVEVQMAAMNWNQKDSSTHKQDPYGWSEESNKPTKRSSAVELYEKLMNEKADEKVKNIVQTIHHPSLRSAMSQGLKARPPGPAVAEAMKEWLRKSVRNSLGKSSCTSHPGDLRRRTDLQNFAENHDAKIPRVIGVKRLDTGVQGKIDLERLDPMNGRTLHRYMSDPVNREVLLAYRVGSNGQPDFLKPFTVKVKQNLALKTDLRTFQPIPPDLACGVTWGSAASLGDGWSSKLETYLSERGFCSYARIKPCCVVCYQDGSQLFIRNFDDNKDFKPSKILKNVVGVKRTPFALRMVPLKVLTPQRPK
Description: (§1) HEK293T cells were transfected with plasmids expressing the Nuclease H polypeptides and the gRNAs provided herein following the methods provided in Example 1 above. Gene editing efficiencies were determined by NGS following the methods also provided in Example 1. The NGS results were analyzed also following the methods provided in Example 1 above.
(§2) Indel ratios, referring to the percentage of NGS reads comprising indels, were calculated for the reference and for each variant. The indel ratios used for fold change calculations were the average of two technical replicates. To then calculate fold change in indel ratios, the indel ratio for each variant was divided by the indel ratio for the reference. […] Numbering is relative to the reference nuclease of SEQ ID NO: 64 (i.e., without an NLS).

Nuclease H D912R = target: T2, Nuclease H D912R (synthetic construct, D912R); test: cell_activity; HEK293T; PAM AAC; conditions: tags: N-term SV40 NLS, XTEN linker + C-term nucleoplasmin NLS
T2 chain: T1 chain with R323L, D912R
Description: as §1, §2

B1: H AAVS1-T5 RNA guide ; AAVS1-T5 target (H) (ssRNA ; dsDNA)
RNA: GGCUAUAAUCCAUGCUGACCGUUUCAAUCAACCUGAUCUCUCUGCUUGCGCUGCAGGCUUCAUAAGAUCAGUAGGUUGAAAAGAGCAUCCGUCCGACAUGCACUCCGGGAUGGGGCAGUCCCGGCUCUUGCGGUUCCCGAUGCAGUUAUGUGUCCGCGGAACACGGUGUCGGACACGUCGCAAGACAGGAUGUGAGCCCAUUAUCCACAUUAGGAUCAAUGUACGCAUGAGCAGUCCGCAAUGCCGGGGACGCU
DNA 1: GGCTATAATCCATGCTGACC
DNA 2: GGTCAGCATGGATTATAGCC
For B1, the “fold change in indel ratio vs reference” value (Nuclease H L323R) was 5.91 fold indel vs reference and the “fold change in indel ratio vs reference” value (Nuclease H D912R) was 4.21 fold indel vs reference.
